# B1: GluN1-NTD-Y109C, purified (gel filtration and negative stain EM) (domain or fragment)
# chain: not shown
# B2: GluN1-NTD (crystallised; from GluN1-NTD-8His) (domain or fragment)
# chain: not shown
# modifications: N-linked N-acetyl glucosamine at N61, N203, N239, N276 and N300 (EndoH treated)
# Legend:
# SEC = target: the molecule itself; assay: SEC
# crystal structure = target: the molecule itself; assay: crystal structure
Protein,stoichiometry N (SEC),binding result (crystal structure)
B1,2,
B2,,binds

# — publication PMC3063151 (The Journal of neuroscience : the official journal of the …, 2011)
